Experimental data published in patent US20220098310A1 (Alexion, published 2022).

T1: recombinant human ALK2 extracellular domain (Creative Biomart catalog number ACVR1-01H) (human, UniProt Q04771 21-123)
T1 construct: also called ALK2 ECD; ACVR1 ECD
T1 sequence: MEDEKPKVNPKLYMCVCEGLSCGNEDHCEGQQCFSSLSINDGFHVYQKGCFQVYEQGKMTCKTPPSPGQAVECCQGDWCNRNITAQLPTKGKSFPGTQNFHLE

T2: mouse ALK2 expressed on the cell surface of wild-type C2C12 mouse myoblast cells (mouse, UniProt P37172 21-509)
T2 construct: Endogenous ALK2 of C2C12 cells (ATCC CRL-1772); also called murine ALK2; ALK2 on C2C12 cells
T2 sequence: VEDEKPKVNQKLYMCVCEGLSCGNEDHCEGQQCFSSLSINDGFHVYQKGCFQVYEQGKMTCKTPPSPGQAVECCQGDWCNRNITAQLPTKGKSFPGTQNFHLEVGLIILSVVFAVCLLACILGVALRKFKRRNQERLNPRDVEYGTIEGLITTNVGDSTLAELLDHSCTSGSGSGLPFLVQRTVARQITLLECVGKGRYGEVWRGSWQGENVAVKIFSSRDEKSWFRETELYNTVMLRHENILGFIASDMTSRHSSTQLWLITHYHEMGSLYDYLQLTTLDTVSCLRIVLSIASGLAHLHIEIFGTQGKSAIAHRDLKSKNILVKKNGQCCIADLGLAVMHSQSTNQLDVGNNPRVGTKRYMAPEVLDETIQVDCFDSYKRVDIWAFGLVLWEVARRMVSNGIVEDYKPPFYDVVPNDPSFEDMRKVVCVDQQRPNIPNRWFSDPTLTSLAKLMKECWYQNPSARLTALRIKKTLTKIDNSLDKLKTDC


What was measured:
[1] = target: T1, recombinant human ALK2 extracellular …; assay: SPR (Biacore), antibody captured, ALK2 ECD as analyte
[2] = target: T3, ALK1-Fc (R&D Systems catalog number 370-AL-100) (human, UniProt P37023 22-118); assay: bio-layer interferometry (Octet): ALK1-Fc captured on anti-human Fc tips, antibody in solution at 10 ug/mL
T3 construct: extracellular domain; Bought; also called recombinant ALK1-Fc; paralog ALK1; not shown: Fc part (loaded on anti-human Fc tips)
Protocol: ALK2-Fc (R&D Systems), ALK2-Fc (Sino Biological catalog number 10227-H03H), and ALK1-Fc (R&D Systems catalog number 370-AL-100) were diluted to 10 μg/mL in 1× kinetics buffer (ForteBio) and loaded onto anti-human Fc tips (ForteBio). After baseline equilibration in kinetics buffer (ForteBio), the sensors were applied to solutions of antibodies JAB0399, JAB0481, and BB5.1 (isotype control mAb) diluted to 10 μg/ml in kinetics buffer. The sensors were then applied to antibody-free kinetics buffer to measure antibody dissociation.

[3] = target: T1, recombinant human ALK2 extracellular …; assay: SPR (Biacore), JAB0481 captured at low density on anti-mouse IgG chip, ALK2 ECD as analyte, 1:1 Langmuir fit
Protocol: (§1) Anti-mouse IgG was immobilized on carboxymethylated dextran BiaCore sensor chips (CMS, GE Biosciences) using a Mouse Antibody Capture Kit (GE Lifesciences product number BR100838). Two sensors were prepared; one for a “low” density of JAB0481 captured on the sensor and one with a “high” density of JAB0481 captured on the sensor. JAB0481 was diluted to 0.05 mg/ml in HEPES EDTA surfactant buffer (HBS-EP), pH 7.4 and injected onto the mouse antibody capture sensors. The volume of JAB0481 solution injected for the “low” density condition was […], and the volume that was used for the “high” density condition was 30 μL.
(§2) The ALK2 ECD was diluted in HBS-EP buffer and injected over the JAB0481 captured sensors at concentrations ranging from 2000 nM to 250 nM followed by a 300 second association period. This was followed by the injection of HBS-EP buffer and a 500 second dissociation period. Relative response deflection was plotted against time and the data were fitted to curves according to the Langmuir 1:1 binding kinetic model.
(§3) The sensorgrams for the binding of the ALK2 ECD to JAB0481 at low surface density is provided in FIG. 9, while the sensorgrams for the binding of the ALK2 ECD to JAB0481 at high surface density is provided in FIG. 10. Table 2 provides the association and dissociation rates, the dissociation constant, and Chi squared values calculated from the Biacore binding data.

[4] = target: T2, mouse ALK2 expressed on the cell …; assay: flow cytometry on wild-type C2C12 cells, antibody 2.45 to 5,000 ng/mL and 0 ng/mL, detected with AF488 donkey anti-mouse IgG
Protocol: Anti-ALK2 antibodies were evaluated for binding to ALK2 expressed on the cell surface of mouse myoblast cells (C2C12; ATCC CRL-1772) by flow cytometry. The expression of ALK2 in wild-type C2C12 cells was confirmed by RT-qPCR and by observing the binding of commercially available polyclonal anti-ALK2 antibodies to the cells by flow cytometry (data not shown). […] Loss of ALK2 expression was verified by flow cytometry and genomic sequencing (data not shown).
Wild-type and ALK2 knock-out C2C12 cells were detached from culture flasks using AssayComplete™ Cell Detachment Reagent (DiscoverX) which was used to maintain intact cell membrane morphology. Cells were washed twice with PBS and then re-suspended in PBS. […] Cells were washed once in FACS buffer (5% bovine serum albumin, […] in PBS) re-suspended in blocking buffer (6% BSA in PBS) and incubated on wet ice for 15 minutes. The binding of the anti-ALK2 antibodies to cells was detected with a 1:100 dilution of Alexa Fluor488-conjugated donkey anti-mouse IgG (ThermoFisher catalog number A21202). Cells were then washed twice in FACS buffer, re-suspended in FACS buffer and the binding of anti-ALK2 antibodies determined by flow cytometry using a DxP6 flow cytometer (Cytek).

[5] = target: T1, recombinant human ALK2 extracellular …; assay: SPR (Biacore), JAB0481 captured at high density on anti-mouse IgG chip, ALK2 ECD as analyte, 1:1 Langmuir fit
Protocol: as §1, §2, §3

[6] = target: T2, mouse ALK2 expressed on the cell …; assay: cell-based or functional assay

T3 sequence (P37023 22-118): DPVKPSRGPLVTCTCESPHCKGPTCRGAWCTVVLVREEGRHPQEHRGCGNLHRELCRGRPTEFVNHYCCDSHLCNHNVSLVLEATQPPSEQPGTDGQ

Row | Binder | Kd [1] [nM] | koff [1] [s⁻¹] | kon [1] [M⁻¹ s⁻¹] | binding result [2] | Kd [3] [nM] | koff [3] [s⁻¹] | kon [3] [M⁻¹ s⁻¹] | binding result [4] | Kd [5] [nM] | koff [5] [s⁻¹] | kon [5] [M⁻¹ s⁻¹] | IC50, BRE-luciferase reporter assay in C2C12 cells stimulated with BMP9 [6] [nM]
1 | JAB0481 (antibody, mouse IgG1, kappa, Murine IgG1/kappa; also called antibody JAB0481; parent mAb JAB0481) heavy: EVQLQQSGAELVRPGASVRLSCTASGFNIKDSLMHWVKQRPEQGLEWIGWIDPEDGETKYAPNFQDKATITAVTSSNTAYLQLSSLTSEDSAIYYCARYTSDYYTMDYWGQGTSVTVSSAKTTPPSVYPLAPGSAAQTNSMVTLGCLVKGYFPEPVTVTWNSGSLSSGVHTFPAVLQSDLYTLSSSVTVPSSTWPSQTVTCNVAHPASSTKVDKKIVPRDCGCKPCICTVPEVSSVFIFPPKPKDVLTITLTPKVTCVVVDISKDDPEVQFSWFVDDVEVHTAQTKPREEQINSTFRSVSELPIMHQDWLNGKEFKCRVNSAAFPAPIEKTISKTKGRPKAPQVYTIPPPKEQMAKDKVSLTCMITNFFPEDITVEWQWNGQPAENYKNTQPIMDTDGSYFVYSKLNVQKSNWEAGNTFTCSVLHEGLHNHHTEKSLSHSPGK light: DIQMTQSPASQSASLGESVTFTCLASQTIGTWLAWYQQKPGKSPQLLIYAATSLADGVPSRFSGSGSGTKFSFKISSLQAEDFASYYCQQLYSTPWTFGGGTKLEIKRADAAPTVSIFPPSSEQLTSGGASVVCFLNNFYPKDINVKWKIDGSERQNGVLNSWTDQDSKDSTYSMSSTLTLTKDEYERHNSYTCEATHKTSTSPIVKSFNRNEC | 132 | 0.00516 | 39100 | no binding (tested: 10 ug/mL) | 155 | 0.00833 | 53600 | binds | 72.7 | 0.00467 | 64200 | 
2 | JAB0399 (antibody, mouse IgG1, kappa, Murine IgG1/kappa mAb from phage library; also called antibody JAB0399; mAb JAB0399) heavy: EVQLQQSGAELVRPGASVRLSCTASGFNIKDSLMHWVKQRPEQGLEWIGWIDPEDGETKYAPNFQDKATITAVTSSNTAYLQLSSLTSEDSAIYYCARYTSDYYTMDYWGQGTSVTVSSAKTTPPSVYPLAPGFAAQTNSMVTLGCLVKGYFPEPVTVTWNSGSLSSGVHTFPAVLQSDLYTLSSSVTVPSSTWPSQTVTCNVAHPASSTKVDKKIVPRDCGCKPCICTVPEVSSVFIFPPKPKDVLTITLTPKVTCVVVDISKDDPEVQFSWFVDDVEVHTAQTKPREEQINSTFRSVSELPIMHQDWLNGKEFKCRVNSAAFPAPIEKTISKTKGRPKAPQVYTIPPPKEQMAKDKVSLTCMITNFFPEDITVEWQWNGQPAENYKNTQPIMDTDGSYFVYSKLNVQKSNWEAGNTFTCSVLHEGLHNHHTEKSLSHSPGK light: DIQMTQSPASQSASLGESVTFTCLASQTIGTWLAWYQQKPGKSPQLLIYAATSLADGVPSRFSGSGSGTKFSFKISSLQAEDFASYYCQQLYSTPWTFGGGTKLEIKRADAAPTVSIFPPSSEQLTSGGASVVCFLNNFYPKDINVKWKIDGSERQNGVLNSWTDQDSKDSTYSMSSTLTLTKDEYERHNSYTCEATHKTSTSPIVKSFNRNEC |  |  |  | no binding (tested: 10 ug/mL) |  |  |  |  |  |  |  | 
3 | JAB0505 (antibody, mouse IgG1, kappa, V domains shown, also called antibody JAB0505) VH: EVQLQQSGAELVRPGASVRLSCTASGFNIKDSLMHWVKQRPEQGLEWIGWIDPEDGETRYAPNFQDKATITAVTSSNTAYLQLSSLTSEDSAIYYCARYTSRYYTMEYWGQGTSVTVSS VL: DIQMTQSPASQSASLGESVTFTCLASQTIGTWLAWYQQKPGKSPQLLIYAATSLADGVPSRFSGSGSGTKFSFKISSLQAEDFASYYCQQLYWTPWTFGGGTKLEIKR | 20.8 | 0.000839 | 40300 |  |  |  |  |  |  |  |  | 0.139
4 | JAB0501 (antibody, mouse IgG1, kappa, V domains shown) VH: EVQLQQSGAELVRPGASVRLSCTASGFNIKDSLMHWVKQRPEQGLEWIGWIDPEDGETKYAPNFQSKATITAVTSSNTAYLQLSSLTSEDSAIYYCARYTSPYYTMDYWGQGTSVTVSS VL: DIQMTQSPASQSASLGESVTFTCLASQTIGTWLAWYQQKPGKSPQLLIYAATSLADGVPSRFSGSGSGTKFSFKISSLQAEDFASYYCQQVYSTPWTFGGGTKLEIKR | 24.5 | 0.000929 | 37900 |  |  |  |  |  |  |  |  | 0.204
